Experimental data: patent publication US20250205324A1, “ANTIGENIC PEPTIDES FOR PREVENTION AND TREATMENT OF CANCER” (ENTEROME S.A., priority 2022, published 2025)
Read-outs that look alike come from different tables or passages of the source. Where no end group is shown, it is not given here.

Legend:
HLA-A*0201 = target: T1, HLA-A*0201 (Homo sapiens, UniProt P04439, D140Y/D185E/D98H/E176V/E277Q/G131W/G231S/I119V/I121R/I166T/I218V/L300P/L318F/N151K/N90K/P208A/P217A/Q86G/Q94H/R138H/R169H/T345S); assay: Affinity of the peptide to T2 cell line (HLA-A*0201 binding, FACS with anti-HLA-A2 antibody); settings: T2 cells
T1 construct: human tumoral cell T2 which expresses the HLA-A*0201 molecule; endogenous in cells; host or cells: T2 cells (human, TAP1/2 negative)
Protocol: (§1) T2 cells (5·10^4 cells per well) are incubated with decreasing concentrations of peptides from 100 μM to 0.1 μM (4 points: 100 μM, 10 μM, 1 μM, 0.1 μM) in serum-free medium (TexMacs) supplemented with 100 ng/μl of 2 Microglobulin at 37° C. for 16 hours.
The analysis is achieved by FACS (Macsquant analyzer 10 or a Macsquant analyzer 16-Miltenyi).

[1] = tested on: T2 cell lines loaded with bacterial peptide or human counterpart peptide; assay: Cytotoxic assay of peptide-specific CD8+ T cells against peptide-loaded T2 cells; format: cell-based
Excerpt: CD8+ T cells expanded per above were used to perform cytotoxic assays in presence of different ratios of target and effector cells to assess their cytotoxic capacity, using flow cytometry readout. Target cells were T2 cell lines loaded with bacterial peptide or human counterpart peptide. As a negative control T2 cells unloaded and T2 cells loaded with irrelevant peptide were employed.

[2] = target: T2, HLA-A*0201 molecule expressed on human T2 cells (human); assay: T2 cell HLA-A*0201 binding assay, anti-HLA-A2-PE flow cytometry
T2 construct: surface HLA-A2 detected with anti-HLA-A2-PE (clone REA517); also called HLA-A2
Protocol: as §1, with “(5·10⁴” for “(5·10^4”, “hours. Cells are then washed two times and marked with the anti-HLA-A2 antibody coupled to PE (clone REA517, Miltenyi).” for “hours.”
For each peptide concentration, the geometric mean of the labelling associated with the peptide of interest is subtracted from background noise and reported as a percentage of the geometric mean of the HLA-A*0202 labelling obtained for the reference peptide HIV pol 589-597 at a concentration of 100 μM.

[3] = T cell clones expanded in vitro, flow cytometry readout (FIG. 18)

Row | Molecule | Concentration of peptide that induces 20% of HLA-A2 expression (HLA-A*0201) | also measured
1 | AINPELLQL (listed as Homo sapiens) [KIF2C-H1] | 22.55 µM | 
2 | ALNPELLAL [KIF2C-B1, ALNPELLAL] |  | cytotoxic capacity of peptide-specific T cells against T2 cells loaded with bacterial or human peptides [1]: have the ability to kill T2 cells loaded with bacterial or human peptides; cytotoxic capacity of peptide-specific human T cell clones against T2 cells loaded with the bacteria peptide [1]: have the capacity to kill T2 cells; cytotoxic capacity of peptide-specific human T cell clones against T2 cells loaded with the human peptide [1]: able to kill T2 cells loaded with the human
3 | ALYDVRTIL (listed as Homo sapiens) [UBE2C-H1] | 14.98 µM | 
4 | ALYDVRTILL (listed as Homo sapiens) [UBEC2-H11] | 14.87 µM | 
5 | AQIGIVAVV (listed as Homo sapiens) [OR51E2-H1] | 5.68 µM | 
6 | AVIGIVAAV [OR51E2-B1] | 0.7 µM | 
7 | FLYDVRTYL [UBE2C-B1] |  | cytotoxic capacity of peptide-specific human T cell clones against T2 cells loaded with the bacteria peptide [1, 3]: have the capacity to kill T2 cells; cytotoxic capacity of peptide-specific human T cell clones against T2 cells loaded with the human peptide [1, 3]: able to kill T2 cells loaded with the human; cytotoxic capacity of peptide-specific T cells against T2 cells loaded with bacterial or human peptides ([1]; legend of FIG. 18): have the ability to kill T2 cells loaded with bacterial or human peptides
8 | ILLSIQSLL (listed as Homo sapiens) [UBE2C-H2] | 3.27 µM | 
9 | IVWSDVTYV [MMP11-B1] | 0.08 µM | 
10 | KILDTVHSC (listed as Homo sapiens) [ANKRD30A-H2] | 25.32 µM | 
11 | KVWSDVTPL (listed as Homo sapiens) [MMP11-H1] | 0.65 µM | 
12 | LILDTVHSL [ANKRD30A-B2] | 1.13 µM | 
13 | LVIGIILAV (listed as Homo sapiens) [CDH17-H1] | 14.06 µM | 
14 | QMNPELLTL [KIF2C-B11] | 0.909 µM | 
15 | RLQQELMTL (listed as Homo sapiens) [UBE2C-H3] | 1.06 µM | 
16 | SLDQKLFQL (listed as Homo sapiens) [ANKRD30A-H3] | 0.32 µM | 
17 | SLLSIQSYV [UBE2C-B2] | 0.22 µM | 
18 | SLPDRILTV [CDC20-B1] |  | cytotoxic capacity of peptide-specific T cells against T2 cells loaded with bacterial or human peptides [1]: have the ability to kill T2 cells loaded with bacterial or human peptides; cytotoxic capacity of peptide-specific human T cell clones against T2 cells loaded with the bacteria peptide [1]: have the capacity to kill T2 cells; cytotoxic capacity of peptide-specific human T cell clones against T2 cells loaded with the human peptide [1]: able to kill T2 cells loaded with the human
19 | TLDQKLFMV [ANKRD30A-B3] | 0.14 µM | 
20 | VLNPELLML [KIF2C-B13] | 0.189 µM | 
21 | VMNPELLLL [KIF2C-B12] | 0.258 µM | 
22 | YLILEYAPL (listed as Homo sapiens) [AURKA-H1] | 12.2 µM | 
23 | YLYDVRTAL [UBE2C-B11, b339 prints …] | 0.87 µM | 
24 | YLSGANLFV (also called CEACAM-B1; ENT188_B1) [CEACAM5-B1] |  | concentration of peptide that induces 20% of HLA-A2 expression [2]: 0.5 µM; in vitro binding affinity (relative affinity, normalized against HIV-pol) [2]: 0.5 ratio to HIV pol reference peptide; mean relative fluorescence intensity at 0.1 µM peptide [2]: 7.7 % of HIV pol reference peptide; mean relative fluorescence intensity at 1 µM peptide [2]: 30.8 % of HIV pol reference peptide; mean relative fluorescence intensity at 10 µM peptide [2]: 69.2 % of HIV pol reference peptide; mean relative fluorescence intensity at 100 µM peptide [2]: 76 % of HIV pol reference peptide
